Test results taken from patent US20260028383A1 (KINE BIOTECH, published 2026).
Where a chain is given by its changes, count along the chain named. In names and notes the source's numbering stands. Read-outs that look alike come from different tables or passages of the source. Values belong to the molecule of their own block, whether it stands above or below them.

Tests used:
Experiment in all cases: cell-based or functional assay
[1] = molecular target: high-affinity IL-2R (containing the α/β/γc-subunits of the IL-2R) expressed on CTLL-2 cells (mouse) (UniProt P01590)
[2] = molecular target: high-affinity IL-2R (containing the α/β/γc-subunits of the IL-2R) expressed on CTLL-2 cells (mouse) (UniProt P01590); remark: listed apart in the source
[3] = molecular target: T1, intermediate-affinity IL-2R (containing the β/γc-subunits of the IL-2R) expressed on HH cells (human, UniProt P14784 27-551; P31785 23-369)
T1 sequence (looked up) 1: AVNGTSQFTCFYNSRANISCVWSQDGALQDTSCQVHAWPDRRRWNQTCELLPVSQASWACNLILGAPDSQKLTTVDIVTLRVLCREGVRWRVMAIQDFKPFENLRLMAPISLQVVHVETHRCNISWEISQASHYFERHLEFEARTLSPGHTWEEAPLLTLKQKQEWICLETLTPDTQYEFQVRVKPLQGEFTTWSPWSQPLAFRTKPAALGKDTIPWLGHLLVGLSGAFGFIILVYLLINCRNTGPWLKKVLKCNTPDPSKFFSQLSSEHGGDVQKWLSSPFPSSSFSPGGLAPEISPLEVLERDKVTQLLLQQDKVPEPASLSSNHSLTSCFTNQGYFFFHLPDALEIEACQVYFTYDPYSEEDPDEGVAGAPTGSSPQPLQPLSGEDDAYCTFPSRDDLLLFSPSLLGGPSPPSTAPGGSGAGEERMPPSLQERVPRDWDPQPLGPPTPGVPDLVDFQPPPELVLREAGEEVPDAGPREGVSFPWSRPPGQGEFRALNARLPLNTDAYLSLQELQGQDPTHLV
T1 sequence (looked up) 2: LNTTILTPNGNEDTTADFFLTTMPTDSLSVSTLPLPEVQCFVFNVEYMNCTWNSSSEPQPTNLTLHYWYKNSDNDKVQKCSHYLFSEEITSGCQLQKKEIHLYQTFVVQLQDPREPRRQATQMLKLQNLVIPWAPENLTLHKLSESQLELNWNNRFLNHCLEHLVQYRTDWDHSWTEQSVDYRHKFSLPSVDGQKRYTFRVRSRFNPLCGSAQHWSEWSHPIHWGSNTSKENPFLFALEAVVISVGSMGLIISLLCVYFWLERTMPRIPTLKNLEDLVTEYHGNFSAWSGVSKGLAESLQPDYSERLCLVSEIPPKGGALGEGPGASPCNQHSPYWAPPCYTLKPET

[4] = molecular target: T2, high-affinity IL-2R (containing the α/β/γc-subunits of the IL-2R) expressed on CTLL-2 cells (mouse, UniProt P01590 22-268; P16297 27-539; P34902 23-369)
T2 sequence (looked up) 1: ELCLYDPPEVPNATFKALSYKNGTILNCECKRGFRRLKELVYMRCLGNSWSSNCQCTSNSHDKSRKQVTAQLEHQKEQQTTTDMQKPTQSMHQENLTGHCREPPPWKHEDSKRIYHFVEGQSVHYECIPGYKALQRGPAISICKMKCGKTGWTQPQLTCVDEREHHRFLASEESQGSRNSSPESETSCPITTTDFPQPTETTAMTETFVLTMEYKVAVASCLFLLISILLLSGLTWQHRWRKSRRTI
T2 sequence (looked up) 2: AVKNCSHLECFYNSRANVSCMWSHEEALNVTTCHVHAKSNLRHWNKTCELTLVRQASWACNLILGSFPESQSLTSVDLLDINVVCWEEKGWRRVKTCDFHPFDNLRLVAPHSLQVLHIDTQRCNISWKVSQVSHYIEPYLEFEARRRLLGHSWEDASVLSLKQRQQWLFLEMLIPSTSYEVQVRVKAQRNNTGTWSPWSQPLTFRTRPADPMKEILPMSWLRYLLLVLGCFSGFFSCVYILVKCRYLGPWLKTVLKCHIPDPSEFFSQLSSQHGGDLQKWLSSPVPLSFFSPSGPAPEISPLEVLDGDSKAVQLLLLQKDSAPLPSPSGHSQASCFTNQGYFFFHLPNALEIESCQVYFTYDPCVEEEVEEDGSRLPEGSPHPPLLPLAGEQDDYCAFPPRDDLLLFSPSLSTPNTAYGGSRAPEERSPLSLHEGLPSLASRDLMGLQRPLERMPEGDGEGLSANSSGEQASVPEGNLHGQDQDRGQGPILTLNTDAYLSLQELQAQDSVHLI
T2 sequence (looked up) 3: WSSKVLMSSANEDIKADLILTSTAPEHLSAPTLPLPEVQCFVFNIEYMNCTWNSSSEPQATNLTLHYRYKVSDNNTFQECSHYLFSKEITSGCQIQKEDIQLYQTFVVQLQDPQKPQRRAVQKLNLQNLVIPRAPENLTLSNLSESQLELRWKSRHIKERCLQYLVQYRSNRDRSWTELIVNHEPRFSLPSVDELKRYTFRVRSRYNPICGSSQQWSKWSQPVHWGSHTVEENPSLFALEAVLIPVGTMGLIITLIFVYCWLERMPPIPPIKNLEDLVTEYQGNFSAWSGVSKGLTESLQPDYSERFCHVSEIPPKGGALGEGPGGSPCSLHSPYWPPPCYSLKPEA

[5] = molecular target: T1, intermediate-affinity IL-2R (containing …); remark: listed apart in the source
[6] = molecular target: T1, intermediate-affinity IL-2R (containing …); remark: listed apart in the source
[7] = molecular target: T1, intermediate-affinity IL-2R (containing …); remark: listed apart in the source
[8] = molecular target: T2, high-affinity IL-2R (containing the …); remark: listed apart in the source
[9] = molecular target: T1, intermediate-affinity IL-2R (containing …); remark: listed apart in the source
[10] = molecular target: T2, high-affinity IL-2R (containing the …); remark: listed apart in the source

B1: IL-2 variant IL-2_#3 (F42V, Y45A, L72N, C125G) (ligand)
chain: APTSSSTKKTQLQLEHLLLDLQMILNGINNYKNPKLTRMLTVKFAMPKKATELKHLQCLEEELKPLEEVLNNAQSKNFHLRPRDLISNINVIVLELKGSETTFMCEYADETATIVEFLNRWITFGQSIISTLT
EC50 (HH/CTLL-2): EC50 on HH cells (intermediate-affinity IL-2R) divided by EC50 on CTLL-2 cells (high-affinity IL-2R) [3]: 0.22 ratio
EC50 of pSTAT-5 induction in CTLL-2 cells (flow cytometry) [4]: 44.1 nM
EC50 of pSTAT-5 induction in HH cells (flow cytometry) [5]: 9.6 nM

B3: IL-2 variant IL-2_#12 (F42C, Y45N, L72V) (ligand)
chain: B1 chain with V42C, A45N, N72V, G125C
EC50 (HH/CTLL-2): EC50 on HH cells (intermediate-affinity IL-2R) divided by EC50 on CTLL-2 cells (high-affinity IL-2R) [3]: 0.24 ratio
EC50 of pSTAT-5 induction in CTLL-2 cells (flow cytometry) [4]: 2.32 nM
EC50 of pSTAT-5 induction in HH cells (flow cytometry) [5]: 0.556 nM

B4: IL-2 variant IL-2_#9 (F42H, Y45D, L72I, C125G) (ligand)
chain: B1 chain with V42H, A45D, N72I
EC50 (HH/CTLL-2): EC50 on HH cells (intermediate-affinity IL-2R) divided by EC50 on CTLL-2 cells (high-affinity IL-2R) [3]: 1.79 ratio
EC50 of pSTAT-5 induction in CTLL-2 cells (flow cytometry) [4]: 10 nM
EC50 of pSTAT-5 induction in HH cells (flow cytometry) [5]: 17.9 nM

B6: IL-2 variant IL-2_#8 (F42V, Y45S, L72N, C125G) (ligand)
chain: B1 chain with A45S
EC50 (HH/CTLL-2): EC50 on HH cells (intermediate-affinity IL-2R) divided by EC50 on CTLL-2 cells (high-affinity IL-2R) [3]: 0.75 ratio
EC50 of pSTAT-5 induction in CTLL-2 cells (flow cytometry) [4]: 120 nM
EC50 of pSTAT-5 induction in HH cells (flow cytometry) [5]: 90.2 nM

B7: IL-2 variant IL-2_#28 (F42A, Y45D, L72D) (ligand)
chain: B1 chain with V42A, A45D, N72D, G125C
EC50 of pSTAT-5 induction in HH cells (flow cytometry) [6]: 8.95 nM
EC50 (HH/CTLL-2): EC50 on HH cells (intermediate-affinity IL-2R) divided by EC50 on CTLL-2 cells (high-affinity IL-2R) [7]: 0.94 ratio
EC50 of pSTAT-5 induction in CTLL-2 cells (flow cytometry) [8]: 9.56 nM

Results, then the molecule that gave them:

EC50 of pSTAT-5 induction in CTLL-2 cells (flow cytometry) [1]: 0.231 nM
EC50 (CTLL-2): pSTAT-5 induction in CTLL-2 cells (flow cytometry) [2]: 0.2 nM
EC50 of pSTAT-5 induction in CTLL-2 cells (flow cytometry) [2]: 0.17 nM
Molecule: wild-type IL-2 (proleukin) (from UniProt P60568 21-153) (ligand)

EC50 of pSTAT-5 induction in HH cells (flow cytometry) [6]: 0.11 nM
EC50 (HH/CTLL-2): EC50 on HH cells (intermediate-affinity IL-2R) divided by EC50 on CTLL-2 cells (high-affinity IL-2R) [7]: 0.05 ratio
EC50 of pSTAT-5 induction in CTLL-2 cells (flow cytometry) [8]: 2.02 nM
B2: IL-2 variant IL-2_#31 (F42A, Y45M, L72N) (ligand)
chain: B1 chain with V42A, A45M, G125C

EC50 (HH): pSTAT-5 induction in HH cells (flow cytometry) [9]: 2.01 nM
EC50 (HH/CTLL-2): EC50 on HH cells (intermediate-affinity IL-2R) divided by EC50 on CTLL-2 cells (high-affinity IL-2R) [9]: 0.037 ratio
EC50 (CTLL-2): pSTAT-5 induction in CTLL-2 cells (flow cytometry) [10]: 54.1 nM
B5: mutant IL-2, IL-2v (AAG), with F42A, Y45A, and L72G substitutions of IL-2 (F. Hoffmann-La Roche Ltd) (ligand)
chain: B1 chain with V42A, N72G, G125C
